B1: LRRC45 (parent)
chain: DLSAANEKNLLLQNQVDELERKFR
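Also: lentivirally expressed fusions sorted by FACS into six bins by GFP to DsRed ratio, PSI derived from sequencing read proportions per bin multiplied by bin number.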

This data set covers variants of B1. The experiment in a line: protein stability index of a GFP-peptide fusion (GPS, HEK-293T) (PSI 1-6); higher = more stable. The conditions noted are these: c terminus: a fixed tail appended.
In the case of DLSAANEKNLLLQNQVDELTRKFR [E20T], the protein stability index was found to be 3.43.

As for DLSAANEKNLLLQNQVDELLRKFR [E20L], the protein stability index came out at 3.23. Next, DLSAANEKNLLLQNQVDELIRKFR [E20I]: 3.47.

Regarding DLSAANEKKLLLQNQVDELERKFR [N9K], the protein stability index amounted to 4.11. On to DLSAANEKSLLLQNQVDELERKFR [N9S], for which the protein stability index is 4.63. As for DLSAANEKRLLLQNQVDELERKFR [N9R], the protein stability index was found to be 4.02. For DLSAANEKELLLQNQVDELERKFR [N9E], the protein stability index worked out at 4.89.

On to DLSAANEKPLLLQNQVDELERKFR [N9P], for which the protein stability index worked out at 4.3.

Consider DLSAANEKHLLLQNQVDELERKFR [N9H], for which the protein stability index came to 4.2.

In the case of DLSAANEKMLLLQNQVDELERKFR [N9M], the protein stability index was determined as 4.24. DLSAANEKFLLLQNQVDELERKFR [N9F]: the protein stability index was 3.98. Under DLSAANEKCLLLQNQVDELERKFR [N9C] stands 4.23; under DLSAANEKLLLLQNQVDELERKFR [N9L], 3.54.

With DLSAANEKNLLLQSQVDELERKFR [N14S], the protein stability index worked out at 3.51. In the case of DLSAANEKNLLLQEQVDELERKFR [N14E], the protein stability index worked out at 4.19. Take DLSAANEKNLLLQYQVDELERKFR [N14Y]: the protein stability index was 3.65. Next, DLSAANEKNLLLQGQVDELERKFR [N14G]: 4.11. On to DLSAANEKNLLLQCQVDELERKFR [N14C], for which the protein stability index amounted to 4. DLSAANEKNLLLQDQVDELERKFR [N14D]: the protein stability index is 4.54. Turning to DLSAANEKNLLLQLQVDELERKFR [N14L], the protein stability index worked out at 3.43. On to DLSAANEKNLLLQFQVDELERKFR [N14F], for which the protein stability index was found to be 3.02.

On to DLSAANEKNLLLQIQVDELERKFR [N14I], for which the protein stability index amounted to 3.05. On to DLSAANEKNLLLQTQVDELERKFR [N14T], for which the protein stability index stood at 3.81. As to DLSAANEKNLLLQNQVDVLERKFR [E18V], the protein stability index amounted to 3.44. For DLSAANEKNLLLQNQVDILERKFR [E18I], the protein stability index is 2.49. On to DLSAANEKNLLLQNQVDYLERKFR [E18Y], for which the protein stability index was 3.26. Under DLSAANEKNLLLQNQVDPLERKFR [E18P] stands 3.91; under DLSAANEKNLLLQNQVDRLERKFR [E18R], 2.96.

For the variant DLSAANEKNLLLQNQVDSLERKFR [E18S], the protein stability index stood at 3.33. Under DLSAANEKNLLLQNQVDCLERKFR [E18C] stands 3.4. For DLSAANEKNLLLQNQVDALERKFR [E18A], the protein stability index was determined as 3.57. For the variant DLSAANEKNLLLQNQVDQLERKFR [E18Q], the protein stability index came to 3.56.

As for DLSAANEKNLLLQNQVDELERKFE [R24E], the protein stability index was 4.71.

On to DLSAANEKNLLLQNQVDELERKFN [R24N], for which the protein stability index stood at 4.47. Regarding DLSAANEKNLLLQNQVDELERKFI [R24I], the protein stability index amounted to 3.85. In the case of DLSAANEKNLLLQNQVDELERKFT [R24T], the protein stability index is 4.14. Under DLSAANEKNLLLQNQVDELERKFA [R24A] stands 4.69. DLSAANEKNLLLQNQVDELERKFG [R24G]: the protein stability index came to 4.48. Under DLSAANEKNLLLQNQVDELERKFQ [R24Q] stands 4.91. Under DLSAANEKNLLLQNQVDELERKFY [R24Y] stands 4.17; under DLSAANEKNLLLQNQVDELERPFR [K22P], 3.88. Take DLSAANEKNLLLQNQVDELERIFR [K22I]: the protein stability index is 3.01. With DLSAANEKNLLLQNQVDELERGFR [K22G], the protein stability index came to 3.62.

As to DLSAANEKNLLLQNQVDELERVFR [K22V], the protein stability index came to 3.27. In the case of DLSAANEKNLLLQNQVDELERFFR [K22F], the protein stability index was determined as 3. On to DLSAANEKNLLLQNQVDELERSFR [K22S], for which the protein stability index stood at 4.15. DLSAANEKNLLLQNQVDELERMFR [K22M]: the protein stability index was found to be 3.34. Under DLSAANEKNLLLQNQVDELERHFR [K22H] stands 3.86; under DLSAANEKNLLLQNQVDELERAFR [K22A], 4.27; under DLSAANEKNLLLQNQVDELERCFR [K22C], 3.47. Next, DLSAANEKNLLLQNQVDELERWFR [K22W]: 3.14. As to DLSAANEKNLLLQNQVDELERNFR [K22N], the protein stability index is 4.18. Turning to DLSAANEKNLLLQNQVDELERKCR [F23C], the protein stability index stood at 4.01. Next, DLSAANEKNLLLQNQVDELERKLR [F23L]: 4.33; DLSAANEKNLLLQNQVDELERKKR [F23K]: 4.33.

As for DLSAANEKNLLLQNQVDELERKHR [F23H], the protein stability index is 3.98. Regarding DLSAANEKNLLLQNQVDELERKMR [F23M], the protein stability index was found to be 4.63. Turning to DLSAANEKNLLLQNQVDELERKNR [F23N], the protein stability index was 4.78.

As for DLSAANEKNLLLQNQVDELERKER [F23E], the protein stability index stood at 5.34.

Take DLSAANEKNLLLQNQVDELERKWR [F23W]: the protein stability index came out at 3.13. DLSAANEKNLLLQNQVDELERKQR [F23Q]: the protein stability index amounted to 4.29. On to DLSAANEKNLLLQNQVDELERKAR [F23A], for which the protein stability index is 5.13. DLSAANEKNMLLQNQVDELERKFR [L10M]: the protein stability index was determined as 4.09. As for DLSAANEKNELLQNQVDELERKFR [L10E], the protein stability index turned out to be 4.94. As to DLSAANEKNNLLQNQVDELERKFR [L10N], the protein stability index was 4.17.

As to DLSAANEKNFLLQNQVDELERKFR [L10F], the protein stability index came out at 3.94. Next, DLSAANEKNWLLQNQVDELERKFR [L10W]: 3.89; DLSAANEKNLLLQNQDDELERKFR [V16D]: 4.12. Under DLSAANEKNLLLQNQQDELERKFR [V16Q] stands 4.29. Turning to DLSAANEKNLLLQNQNDELERKFR [V16N], the protein stability index was determined as 4.24. DLSAANEKNLLLQNQKDELERKFR [V16K]: the protein stability index amounted to 4.42.

On to DLSAANEKNLLLQNQMDELERKFR [V16M], for which the protein stability index was 3.79. Turning to DLSAANEKNLLLQNQIDELERKFR [V16I], the protein stability index came to 4. Under DLSAANEKNLLLQNQSDELERKFR [V16S] stands 4.32; under DLSAAFEKNLLLQNQVDELERKFR [N6F], 3.62; under DLSAAGEKNLLLQNQVDELERKFR [N6G], 4.82. With DLSAAAEKNLLLQNQVDELERKFR [N6A], the protein stability index came to 5.2.

As to DLSAAREKNLLLQNQVDELERKFR [N6R], the protein stability index worked out at 4.61.

Consider DLSAASEKNLLLQNQVDELERKFR [N6S], for which the protein stability index is 4.92.

As to DLSAAYEKNLLLQNQVDELERKFR [N6Y], the protein stability index was 3.77. With DASAANEKNLLLQNQVDELERKFR [L2A], the protein stability index amounted to 5.21. Turning to DSSAANEKNLLLQNQVDELERKFR [L2S], the protein stability index is 4.86.

For DTSAANEKNLLLQNQVDELERKFR [L2T], the protein stability index was 4.92. As for DFSAANEKNLLLQNQVDELERKFR [L2F], the protein stability index was 4.54.

Turning to DNSAANEKNLLLQNQVDELERKFR [L2N], the protein stability index is 4.64. Under DGSAANEKNLLLQNQVDELERKFR [L2G] stands 4.78. Next, DLSAPNEKNLLLQNQVDELERKFR [A5P]: 4; DLSANNEKNLLLQNQVDELERKFR [A5N]: 3.18. In the case of DLSASNEKNLLLQNQVDELERKFR [A5S], the protein stability index was determined as 4.39.

With DLSATNEKNLLLQNQVDELERKFR [A5T], the protein stability index came out at 3.91. Under DLSAWNEKNLLLQNQVDELERKFR [A5W] stands 3.34; under DLSADNEKNLLLQNQVDELERKFR [A5D], 3.69. Regarding DLSAKNEKNLLLQNQVDELERKFR [A5K], the protein stability index was determined as 4.33. DLSALNEKNLLLQNQVDELERKFR [A5L]: the protein stability index turned out to be 3.83.

Source of the values: the supplement of paper PMC10567573.
